The values below come from patent US20160289331A1 (NATIONAL UNIVERSITY CORP HOKKAIDO UNIVERSITY, published 2016).

The target of assay [1] is mDR6 expressed on mouse T cells (DO11.10-T cells, splenocytes) (mouse) (UniProt Q9EPU5). As to the kind of experiment: cell-based or functional assay.
Assay [2] deals with T1, mouse Sdc1 (mSdc1) expressed on cells (mouse, UniProt P18828 18-311, heparan sulfate is bound at position 45 and position 47).
T1 construct: On DO11.10-T or A20 cells transformed with pMXsIG/mSdc1, and endogenous on A20 cells (shRNA experiment); also called mouse syndecan-1; CD138
T1 sequence: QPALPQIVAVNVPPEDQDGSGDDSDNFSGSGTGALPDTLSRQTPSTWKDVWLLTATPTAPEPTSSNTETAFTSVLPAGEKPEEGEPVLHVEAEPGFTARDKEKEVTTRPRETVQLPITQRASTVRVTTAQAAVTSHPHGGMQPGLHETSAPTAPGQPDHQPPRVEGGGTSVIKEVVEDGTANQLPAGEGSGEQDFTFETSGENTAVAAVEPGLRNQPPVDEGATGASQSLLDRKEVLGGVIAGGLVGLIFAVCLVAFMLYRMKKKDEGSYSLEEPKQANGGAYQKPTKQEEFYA
The assay can be described thus: binding of labeled Fc fusions to DO11.10-T cells expressing mSdc1. The text has this: An expression vector (pMXsIG/mSdc1) into which a gene encoding mSdc1 (SEQ ID NO: 7) was incorporated in an expressible manner, and a control vector (pMXsIG) were introduced into DO11.10-T cells to prepare transformed cells. Binding abilities of these two kinds of transformed cells to labeled mDR6-hFcm and to labeled mDR6-hFcm deltaCRD1 was examined, and it was confirmed that binding ability of mDR6-hFcm deltaCRD1 increased to about 2.5 times of that of mDR6-hFcm (FIG. 22).

On to mSdc1-His (ligand), for which the IL2 production level of DO11.10-T cells stimulated with anti-CD3 antibody, mSdc1-His at final concentration 100 nM in assay [1] worked out at 50%.

B1: mDR6-hFcm deltaCRD1 (Fc fusion)
chain: QPEQKTLSLPGTYRHVDRTTGQVLCHDCSQPCPWPMIERLPCAALTDRECICPPGMYQSNGTCAPHTVCPVGWGVRKKGTENEDVRCKQCARGTFSDVPSSVMKCKAHTDCLGQNLEVVKPGTKETDNVCGMRLFFSSTNPPSSGTVTFSHPEHMESHDVPSSTYEPQGMNSTDSNSTASVRTKVPSGIEEGTVPDNTSSTSGKEGTNRTLPNPPQVTHQQAPHHRHILKLLPSSMEATGEKSSTAIKAPKRGHPRQNAHKHFDINEHL
modifications: labeled
notes: Derived from pcDNA/mDR6-hFcm; the Fc part is that of mDR6-hFcm; also called CRD1-deficient solubilized DR6 mutant; cysteine rich domain-deficient mDR6 mutant; not shown: human IgG Fc region
With B1, in assay [2], the “binding ability relative to mDR6-hFcm” value is about 2.5 times.
